We go through one molecule from PMC6946805.

In the test the target is Plasmodium yoelii erythrocyte-binding-like protein (PyEBL), C741 allele of P. yoelii nigeriensis strain N67C, HA::Flag-tagged (Plasmodium yoelii nigeriensis strain N67C). The test can be described thus: co-IP; anti-HA antibody immunoprecipitation of HA-tagged PyEBL from supernatants and solubilized pellets of iRBCs of all parasite stages lysed with saponin (0.1%) and centrifuged (1,455 x g, 4°C, 10 min); Western blot of the precipitates with anti-band 3 or anti-TER119 antibody.

B1: band 3 (natural protein)
chain: MGDMRDHEEVLEIPDRDSEEELENIIGQIAYRDLTIPVTEMQDPEALPTEQTATDYVPSSTSTPHPSSGQVYVELQELMMDQRNQELQWVEAAHWIGLEENLREDGVWGRPHLSYLTFWSLLELQKVFSKGTFLLGLAETSLAGVANHLLDCFIYEDQIRPQDREELLRALLLKRSHAEDLGNLEGVKPAVLTRSGGASEPLLPHQPSLETQLYCGQAEGGSEGPSTSGTLKIPPDSETTLVLVGRANFLEKPVLGFVRLKEAVPLEDLVLPEPVGFLLVLLGPEAPHVDYTQLGRAAATLMTERVFRITASMAHNREELLRSLESFLDCSLVLPPTDAPSEKALLNLVPVQKELLRRRYLPSPAKPDPNLYNTLDLNGGKGGPGDEDDPLRRTGRIFGGLIRDIRRRYPYYLSDITDALSPQVLAAVIFIYFAALSPAVTFGGLLGEKTRNLMGVSELLISTAVQGILFALLGAQPLLVLGFSGPLLVFEEAFFSFCESNNLEYIVGRAWIGFWLILLVMLVVAFEGSFLVQYISRYTQEIFSFLISLIFIYETFSKLIKIFQDYPLQQTYAPVVMKPKPQGPVPNTALFSLVLMAGTFLLAMTLRKFKNSTYFPGKLRRVIGDFGVPISILIMVLVDSFIKGTYTQKLSVPDGLKVSNSSARGWVIHPLGLYRLFPTWMMFASVLPALLVFILIFLESQITTLIVSKPERKMIKGSGFHLDLLLVVGMGGVAALFGMPWLSATTVRSVTHANALTVMGKASGPGAAAQIQEVKEQRISGLLVSVLVGLSILMEPILSRIPLAVLFGIFLYMGVTSLSGIQLFDRILLLFKPPKYHPDVPFVKRVKTWRMHLFTGIQIICLAVLWVVKSTPASLALPFVLILTVPLRRLILPLIFRELELQCLDGDDAKVTFDEENGLDEYDEVPMPV
Regarding B1, the band 3 signal divided by anti-HA signal, ratio N67C/N67, pellet fraction (fold (N67C over N67)) is 3.3 and the band 3 signal divided by anti-HA signal, ratio N67C/N67, supernatant fraction (fold (N67C over N67)) was 3.1.
